Measurements from patent US20220411529A1 (Genmab, published 2022).
Where a chain is given by its changes, count along the chain named. Numbers in names are those of the source.

B1: IgG2-CAMPATH-1H-E345R-K439E (antibody)
heavy: QVQLQESGPGLVRPSQTLSLTCTVSGFTFTDFYMNWVRQPPGRGLEWIGFIRDKAKGYTTEYNPSVKGRVTMLVDTSKNQFSLRLSSVTAADTAVYYCAREGHTAAPFDYWGQGSLVTVSSASTKGPSVFPLAPCSRSTSESTAALGCLVKDYFPEPVTVSWNSGALTSGVHTFPAVLQSSGLYSLSSVVTVPSSNFGTQTYTCNVDHKPSNTKVDKTVERKCCVECPPCPAPPVAGPSVFLFPPKPKDTLMISRTPEVTCVVVDVSHEDPEVQFNWYVDGVEVHNAKTKPREEQFNSTFRVVSVLTVVHQDWLNGKEYKCKVSNKGLPAPIEKTISKTKGQPRRPQVYTLPPSREEMTKNQVSLTCLVKGFYPSDIAVEWESNGQPENNYKTTPPMLDSDGSFFLYSKLTVDKSRWQQGNVFSCSVMHEALHNHYTQESLSLSPGK
light: not shown
B2: IgG2-CAMPATH-1H-E345R-K439E-N297A (antibody)
heavy: B1 heavy with N297A
light: not shown
B3: IgG2-11B8-E345R-S440K (antibody)
heavy: EVQLVQSGGGLVHPGGSLRLSCTGSGFTFSYHAMHWVRQAPGKGLEWVSIIGTGGVTYYADSVKGRFTISRDNVKNSLYLQMNSLRAEDMAVYYCARDYYGAGSFYDGLYGMDVWGQGTTVTVSSASTKGPSVFPLAPCSRSTSESTAALGCLVKDYFPEPVTVSWNSGALTSGVHTFPAVLQSSGLYSLSSVVTVPSSNFGTQTYTCNVDHKPSNTKVDKTVERKCCVECPPCPAPPVAGPSVFLFPPKPKDTLMISRTPEVTCVVVDVSHEDPEVQFNWYVDGVEVHNAKTKPREEQFNSTFRVVSVLTVVHQDWLNGKEYKCKVSNKGLPAPIEKTISKTKGQPRRPQVYTLPPSREEMTKNQVSLTCLVKGFYPSDIAVEWESNGQPENNYKTTPPMLDSDGSFFLYSKLTVDKSRWQQGNVFSCSVMHEALHNHYTQKKLSLSPGK
light: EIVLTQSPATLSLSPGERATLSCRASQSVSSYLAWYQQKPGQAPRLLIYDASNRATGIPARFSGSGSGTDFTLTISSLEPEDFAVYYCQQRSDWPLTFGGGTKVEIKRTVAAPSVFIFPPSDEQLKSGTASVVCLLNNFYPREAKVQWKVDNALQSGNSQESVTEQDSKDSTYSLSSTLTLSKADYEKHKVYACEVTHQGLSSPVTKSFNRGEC
B4: IgG2-11B8-E345R-S440K-N297A (antibody)
heavy: B3 heavy with N301A
light: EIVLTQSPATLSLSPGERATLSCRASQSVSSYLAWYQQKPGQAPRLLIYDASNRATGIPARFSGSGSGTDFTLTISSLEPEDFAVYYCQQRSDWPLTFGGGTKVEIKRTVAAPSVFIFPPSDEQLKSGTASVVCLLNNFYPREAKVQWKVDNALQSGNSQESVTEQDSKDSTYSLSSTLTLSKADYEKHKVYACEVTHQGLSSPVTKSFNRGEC
B5: IgG4-CAMPATH-1H-E345R-K439E (antibody)
heavy: QVQLQESGPGLVRPSQTLSLTCTVSGFTFTDFYMNWVRQPPGRGLEWIGFIRDKAKGYTTEYNPSVKGRVTMLVDTSKNQFSLRLSSVTAADTAVYYCAREGHTAAPFDYWGQGSLVTVSSASTKGPSVFPLAPCSRSTSESTAALGCLVKDYFPEPVTVSWNSGALTSGVHTFPAVLQSSGLYSLSSVVTVPSSSLGTKTYTCNVDHKPSNTKVDKRVESKYGPPCPSCPAPEFLGGPSVFLFPPKPKDTLMISRTPEVTCVVVDVSQEDPEVQFNWYVDGVEVHNAKTKPREEQFNSTYRVVSVLTVLHQDWLNGKEYKCKVSNKGLPSSIEKTISKAKGQPRRPQVYTLPPSQEEMTKNQVSLTCLVKGFYPSDIAVEWESNGQPENNYKTTPPVLDSDGSFFLYSRLTVDKSRWQEGNVFSCSVMHEALHNHYTQESLSLSLGK
light: not shown
B6: IgG4-CAMPATH-1H-E345R-K439E-N297A (antibody)
heavy: B5 heavy with N298A
light: not shown
B7: IgG4-11B8-E345R-S440K (antibody)
heavy: EVQLVQSGGGLVHPGGSLRLSCTGSGFTFSYHAMHWVRQAPGKGLEWVSIIGTGGVTYYADSVKGRFTISRDNVKNSLYLQMNSLRAEDMAVYYCARDYYGAGSFYDGLYGMDVWGQGTTVTVSSASTKGPSVFPLAPCSRSTSESTAALGCLVKDYFPEPVTVSWNSGALTSGVHTFPAVLQSSGLYSLSSVVTVPSSSLGTKTYTCNVDHKPSNTKVDKRVESKYGPPCPSCPAPEFLGGPSVFLFPPKPKDTLMISRTPEVTCVVVDVSQEDPEVQFNWYVDGVEVHNAKTKPREEQFNSTYRVVSVLTVLHQDWLNGKEYKCKVSNKGLPSSIEKTISKAKGQPRRPQVYTLPPSQEEMTKNQVSLTCLVKGFYPSDIAVEWESNGQPENNYKTTPPVLDSDGSFFLYSRLTVDKSRWQEGNVFSCSVMHEALHNHYTQKKLSLSLGK
light: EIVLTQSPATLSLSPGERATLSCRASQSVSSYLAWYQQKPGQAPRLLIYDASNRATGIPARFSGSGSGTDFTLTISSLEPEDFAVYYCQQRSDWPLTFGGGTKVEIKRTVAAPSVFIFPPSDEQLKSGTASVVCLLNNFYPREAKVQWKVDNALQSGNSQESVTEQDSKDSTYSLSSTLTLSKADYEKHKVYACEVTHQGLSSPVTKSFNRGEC
B8: IgG4-11B8-E345R-S440K-N297A (antibody)
heavy: B7 heavy with N302A
light: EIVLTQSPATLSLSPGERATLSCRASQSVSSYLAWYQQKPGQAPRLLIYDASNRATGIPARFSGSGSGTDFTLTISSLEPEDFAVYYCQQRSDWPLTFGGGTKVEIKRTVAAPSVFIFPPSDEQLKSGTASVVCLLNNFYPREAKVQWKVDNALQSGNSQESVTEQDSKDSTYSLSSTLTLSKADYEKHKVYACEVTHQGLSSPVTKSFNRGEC

biological target: FcγRIIIa (V158 high affinity allotype) (UniProt P08637 17-254, limits assumed); experiment: cell-based or functional assay
Sequence (P08637 17-254 F176V limits assumed): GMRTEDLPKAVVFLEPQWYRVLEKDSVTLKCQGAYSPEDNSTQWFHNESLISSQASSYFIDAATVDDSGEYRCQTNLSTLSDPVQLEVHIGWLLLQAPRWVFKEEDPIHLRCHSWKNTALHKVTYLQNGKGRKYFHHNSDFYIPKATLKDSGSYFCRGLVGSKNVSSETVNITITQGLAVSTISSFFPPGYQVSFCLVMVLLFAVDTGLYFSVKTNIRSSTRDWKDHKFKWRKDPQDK

FcγRIIIa activation, reporter cell assay, relative AUC, single agent | Binder
< 5 % of the level induced by the positive control mixture | B1
< 5 % of the level induced by the positive control mixture | B2
< 5 % of the level induced by the positive control mixture | B3
< 5 % of the level induced by the positive control mixture | B4
< 5 % of the level induced by the positive control mixture | B5
< 5 % of the level induced by the positive control mixture | B6
< 5 % of the level induced by the positive control mixture | B7
< 5 % of the level induced by the positive control mixture | B8
